Data as given in paper doi:10.1101/2025.02.11.637337 (bioRxiv, 2025).

What was measured:
crystal structure = target: the molecule itself; experiment: crystal structure
SEC + native gel or EMSA = target: the molecule itself; experiment: SEC + native gel or EMSA

B1: Fr-H6(E53H/E56H/E57H/R59H/E60H/E63H) (natural protein, horse)
chain: SSQIRQNYSTEVEAAVNRLVNLYLRASYTYLSLGFYFDRDDVALEGVCHFFRHLAHHKHHGAHRLLKMQNQRGGRALFQDLQKPSQDEWGTTLDAMKAAIVLEKSLNQALLDLHALGSAQADPHLCDFLESHFLDEEVKLIKKMGDHLTNIQRLVGSQAGLGEYLFERLTLKHD
stoichiometry N (crystal structure): 24

B2: Fr-H4in(R52H/E56H/R59H/E63H) (natural protein, horse)
chain: SSQIRQNYSTEVEAAVNRLVNLYLRASYTYLSLGFYFDRDDVALEGVCHFFHELAHEKHEGAHRLLKMQNQRGGRALFQDLQKPSQDEWGTTLDAMKAAIVLEKSLNQALLDLHALGSAQADPHLCDFLESHFLDEEVKLIKKMGDHLTNIQRLVGSQAGLGEYLFERLTLKHD
stoichiometry N (SEC + native gel or EMSA): 24

B3: Fr-H2(E53H/E57H) (natural protein, horse)
chain: SSQIRQNYSTEVEAAVNRLVNLYLRASYTYLSLGFYFDRDDVALEGVCHFFRHLAEHKREGAERLLKMQNQRGGRALFQDLQKPSQDEWGTTLDAMKAAIVLEKSLNQALLDLHALGSAQADPHLCDFLESHFLDEEVKLIKKMGDHLTNIQRLVGSQAGLGEYLFERLTLKHD
stoichiometry N (SEC + native gel or EMSA): 24

B4: Fr-H4ex(E53H/E57H/E60H/R64H) (natural protein, horse)
chain: SSQIRQNYSTEVEAAVNRLVNLYLRASYTYLSLGFYFDRDDVALEGVCHFFRHLAEHKRHGAEHLLKMQNQRGGRALFQDLQKPSQDEWGTTLDAMKAAIVLEKSLNQALLDLHALGSAQADPHLCDFLESHFLDEEVKLIKKMGDHLTNIQRLVGSQAGLGEYLFERLTLKHD
stoichiometry N (SEC + native gel or EMSA): 24

B5: Fr-H8(R52H/E53H/E56H/E57H/R59H/E60H/E63H/R64H) (natural protein, horse)
chain: SSQIRQNYSTEVEAAVNRLVNLYLRASYTYLSLGFYFDRDDVALEGVCHFFHHLAHHKHHGAHHLLKMQNQRGGRALFQDLQKPSQDEWGTTLDAMKAAIVLEKSLNQALLDLHALGSAQADPHLCDFLESHFLDEEVKLIKKMGDHLTNIQRLVGSQAGLGEYLFERLTLKHD
stoichiometry N (crystal structure): 24
